Test results reported in patent US20200299408A1 (Genentech, published 2020).

Columns and labels:
[1] = biological target: T1, single chain human CD3ε-26mer-CD3γ (CD3εγ) (human); experiment: Biacore full (multi-) cycle kinetics: antigen on chip, Fab injected; antigen not named on the sheet, taken as human CD3εγ
T1 construct: also called human CD3εγ
T1 chain: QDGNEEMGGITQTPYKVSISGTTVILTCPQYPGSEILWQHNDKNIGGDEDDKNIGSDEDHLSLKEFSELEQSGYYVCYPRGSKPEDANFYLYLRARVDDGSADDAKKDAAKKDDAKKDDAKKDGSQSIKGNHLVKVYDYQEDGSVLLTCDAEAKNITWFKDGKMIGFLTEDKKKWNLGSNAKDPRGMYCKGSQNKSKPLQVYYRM
Text: In addition, position 95 in HVR-H3 was also mutated to serine, threonine, or glutamate. Variants with these single point mutations were expressed as Fabs in HEK293 cells and initially screened with a single cycle kinetics method on a Biacore T100. Selected variants were also scaled up and purified for a conventional multi-cycle kinetics method. For single cycle kinetics, Biacore Series S CM5 sensor chips were immobilized with anti-human Fab antibodies (Human Fab capture kit, GE Healthcare). […] For conventional multi-cycle kinetics, human CD3εγ, cyno CD3εγ, or a 27-mer peptide were immobilized on Biacore Series S CM5 sensor chip using the amine coupling kit from Biacore. Serial 3-fold dilutions of each Fab variant were injected at a flow rate of 30 μl/min. Each sample was analyzed with a protocol of 3-minute association and 3-minute dissociation. In both methods, the Biacore chips were regenerated using 10 mM Glycine (pH 1.7). Binding response was corrected by blank subtraction and a 1:1Languir model of simultaneous fitting of kₒₙ and koff was used for kinetics analysis.

[2] = biological target: T1, single chain human CD3ε-26mer-CD3γ …; experiment: Biacore, human CD3εγ on chip, Fab in flow through
Method: Binding affinities for the each of the CD3/CD20 TDBs were tested by Biacore or FACS analysis, as described above for the anti-CD3 antibodies. Briefly, for Biacore binding assays, human CD3εγ was immobilized on Biacore Series S CM5 sensor chip using the amine coupling kit from Biacore and CD3/CD20 TDBs or Fab variants thereof were in the flow through. For FACS binding assays, either Bjab cells (for B cell antigens) or Jurkat cells (for CD3 antigen) were incubated with various concentrations of TDB antibodies at 4° C. for 30 minutes, then cells were washed and incubated with 2nd antibody (anti-huIgG-PE; BD Bioscience) for another 15 minutes, before cells were washed again and ready for FACS analysis.

cyCD3εγ = biological target: T2, cyCD3εγ (cynomolgus monkey); experiment: monovalent binding affinity, method not stated on the sheet
T2 chain 1: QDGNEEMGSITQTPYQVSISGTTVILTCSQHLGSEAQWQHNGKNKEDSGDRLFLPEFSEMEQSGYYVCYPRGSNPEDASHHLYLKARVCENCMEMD
T2 chain 2: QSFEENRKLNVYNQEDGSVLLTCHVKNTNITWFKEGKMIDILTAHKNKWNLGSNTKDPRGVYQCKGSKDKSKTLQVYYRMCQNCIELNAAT

B1: hu38E4.v1 Fab (Fab, V domains shown)
VH: EVQLVQSGAEVKKPGASVKVSCKASGFTFTSYYIHWVRQAPGQGLEWIGWIYPENDNTKYNEKFKDRVTITADTSTSTAYLELSSLRSEDTAVYYCARDGYSRYYFDYWGQGTLVTVSS
VL: DIVMTQSPDSLAVSLGERATINCKSSQSLLNSRTRKNYLAWYQQKPGQSPKLLIYWTSTRKSGVPDRFSGSGSGTDFTLTISSLQAEDVAVYYCKQSFILRTFGQGTKVEIK
notes: Humanized anti-CD3 Fab; Point mutants of it were expressed as Fabs in HEK293 cells
Kd [1]: 0.8 nM | koff [1]: 0.00433 s⁻¹ | kon [1]: 5.44e+06 M⁻¹ s⁻¹ | Kd [2]: 0.8 nM | koff [2]: 0.00507 s⁻¹ | kon [2]: 6.06e+06 M⁻¹ s⁻¹ | Kd (cyCD3εγ): 0.7 nM
